Where two headings read alike, the source gives them in different places.
Key:
Assay in all cases: spectrophotometric quinone formation, Michaelis-Menten fit
Format in all cases: biochemical, Taraxacum officinale
PPO-1 = test system: T1, PPO-1; settings: 50 mM acetate-phosphate, optimal pH (5.5), 25 °C, optimal SDS concentration as activator, O2 co-substrate
T1 construct: mature protein without transit peptide, N-terminal Strep2 tag with enterokinase site spacer; E. coli Rosetta2 (DE3)
From the text: spectrophotometric quinone formation, Michaelis-Menten fit on PPO-1

[1] = substrate: NCCc1ccc(O)c(O)c1; settings: 50 mM acetate-phosphate, optimal pH (6.0), 25 °C, optimal SDS concentration as activator, O2 co-substrate
From the text: spectrophotometric quinone formation, Michaelis-Menten fit on PPO-2

[2] = substrate: NCCc1ccc(O)c(O)c1; settings: 50 mM acetate-phosphate, optimal pH (5.0), 25 °C, optimal SDS concentration as activator, O2 co-substrate
From the text: spectrophotometric quinone formation, Michaelis-Menten fit on PPO-6

[3] = substrate: NCCc1ccc(O)c(O)c1; settings: 50 mM acetate-phosphate, optimal pH (5.0), 25 °C, optimal SDS concentration as activator, O2 co-substrate; remark: listed apart in the source
From the text: spectrophotometric quinone formation, Michaelis-Menten fit on PPO-7

## Oc1ccccc1O [catechol, benzene-1,2-diol]
PPO-1; read-out: substrate / CAT
  Km: 1190 ± 510 µM

## NCCc1ccc(O)c(O)c1 [dopamine, 4-(2-aminoethyl)benzene-1,2-diol]
PPO-1; read-out: substrate / DA
  Km: 780 ± 140 µM

## N[C@@H](Cc1ccc(O)c(O)c1)C(=O)O [dihydroxyphenylalanine, (S)-2-amino-3-(3,4-dihydroxyphenyl)propanoic acid]
PPO-1; read-out: substrate / L-Dopa
  Km: 8070 ± 2140 µM

## Cc1ccc(O)c(O)c1 [4-methylcatechol, 4-methylbenzene-1,2-diol]
PPO-1; read-out: substrate / 4MC
  Km: 1060 ± 180 µM

## O=C(O)Cc1ccc(O)c(O)c1 [dihydroxyphenylacetic acid, 2-(3,4-dihydroxyphenyl)acetic acid]
PPO-1; read-out: substrate / Dopac
  Km: 4950 ± 1670 µM

B1: PPO-2 (Taraxacum officinale) (protein)
chain: DPIMAPDLTKCGPADLPQGAVATNCCPPFTKNIIDFKLPPPSTNLRVRPAAHLANKDYIAKFNKAIELMKALPDDDPRSFKQQAAVHCAYCDGAYDQVGFPDLDLQVHNSWLFLPFHRHYLYFFEKICGKLINDPNFAIPFWNWDTPDGMTIPAIYANKNSQLYDALRDGKHQPPSLVDLDFNGEDENLSKSKQTSTNLTIMYRQMVSSSKTASLFMGSPYRAGDEANPGGGSLESIPHGPVHIWTGDRNQPNGEDMGNFYSAARDPIFYAHHANIDRMWSVWKTLGGRRNDFTDKDWLDSAFLFYDENAELVRVKVRDALDSKKLGYVYQDVGIPWLETKPEPRLKRALSKIKKKLAVARADEHIPFAKDVFPATLDKVIKVLVPRPKKSRSKKQKDAEEEILVIEGIEVKRDEFVKFDVFVNDEDDGMRATADKTEFAGSFVNVPHKHKHGKSVKTRLRLGISELLDDLGADDDDNVLVTLVPKNKGDEVSIKGMKIEYED
notes: mature protein without transit peptide, N-terminal Strep2 tag with enterokinase site spacer; E. coli Rosetta2 (DE3)
[1]
  Km: 940 ± 310 µM
  kcat: 59.5 ± 13.7 s⁻¹

B2: PPO-6 (Taraxacum officinale) (protein)
chain: DPITTPDISTCVASTKGFQPKNAVRTNACCPPTLSKTVKEFVFPNDRATRIRPAAHRASPEYIAKYKAAIQKMRDLEDDDPHSFVSQAKIHCAYCNGGFTQDKHPDKELQIHNSWLFFPFHRWYLYFYERILGKLIDDPTFAIPYWNWDNPAGMSLPDFFEEGGKANPAFDAYRNSSHLAPAIADLDYDGTEKNYTCIKQLSVNLGAMNKQMIRNAGDWKSFFGGEYRAGSDPIGNKDPSVGSVEAGCHTAIHRWVGNSRLPNGEDMGNFYSAGYDPVFYVHHANVDRMWKVWKDLGIRGHIEPPDNDWRNASYVFYDENKELVRVYNKDCVRLEKLKYDYQFAPIPWKNSRPVARTKKSNIALKSVGTVKQAQDSKFPLKLDKTTKVLVKRPATNRSKEDKENANEVLLIKGVVFNGEKFVKFDVFVNDKDDVTASTAEESEFAGSFAQLPHNHGDKMLMTSSARFGLTELLEDIDAEDDESILVTLVPKVGCEEVTIGEIKVELVPIEE
notes: mature protein without transit peptide, N-terminal Strep2 tag with enterokinase site spacer; E. coli Rosetta2 (DE3); disulfide-linked tetramer
[2]
  Km: 5620 ± 1140 µM
  kcat: 61.7 ± 10.6 s⁻¹

B3: PPO-7 (Taraxacum officinale) (protein)
chain: APITTPDISTCIPSESGFNTEDSVRSNQCCPPATSSTIPKEFVFPKDTTTRIRPAAHRATPEYVAKYKAAIQAMRDLPDDHPHSFVSQAKIHCAYCNGGYTQVASGFPDKMLQVHNSWLFFPFHRWYLYFYERILGKLIDDPTFALPYWNWDHPAGMTLPAFFETDGKRNPVFDAYRNVTHVTPAAIVDLDYNGSDSGAPCLQQINTNLTAMYKQMVSNAADPLSFFGGVYKAGDDPFGNGDPSVGSVEAGCHTAVHRWVGNPRMMNTEDMGNFYSAGYDPAFYVHHANVDRMWKVWKDLGIPGHSEPTDPDWLNASFVFYDENEQLVRVYNKDCVNLENLKYDYELSPLPWLKNRPVPHTPKPVDNAAKPAIKLPEVKFPVKLDKTVKVYVKRPVKKRGKAEKDKVSEQLVLKGIKFNSTKFVKVDVFVNDQDDAPAILPSESEFVGSFAQLPHGRSGRGRGRGHGHSELMTSAARFGLTELLEDIGAEDDEYILVTLVPKAGSEDVTVEEITVELVPVNP
notes: mature protein without transit peptide, N-terminal Strep2 tag with enterokinase site spacer; E. coli Rosetta2 (DE3); tetramer
[3]
  Km: 4490 ± 2260 µM
  kcat: 22.6 ± 2.5 s⁻¹

From paper PMC4053514, “Structural Diversity in the Dandelion (Taraxacum officinale) Polyphenol Oxidase Family Results in Different Responses to Model Substrates” (PLoS ONE, 2014)
